From patent US20240228604A1 (ALCHEMAB THERAPEUTICS, published 2024)

Legend:
[1] = biological target: T1, Human Neogenin (R&D Systems catalogue number 8607-NE; BLI antigen) (Human, UniProt Q92859 34-1105); test: BLI, antigen captured by His tag, antibody as analyte
T1 construct: extracellular domain; Bought protein; also called neogenin-1 ectodomain; NEO1
T1 sequence (looked up): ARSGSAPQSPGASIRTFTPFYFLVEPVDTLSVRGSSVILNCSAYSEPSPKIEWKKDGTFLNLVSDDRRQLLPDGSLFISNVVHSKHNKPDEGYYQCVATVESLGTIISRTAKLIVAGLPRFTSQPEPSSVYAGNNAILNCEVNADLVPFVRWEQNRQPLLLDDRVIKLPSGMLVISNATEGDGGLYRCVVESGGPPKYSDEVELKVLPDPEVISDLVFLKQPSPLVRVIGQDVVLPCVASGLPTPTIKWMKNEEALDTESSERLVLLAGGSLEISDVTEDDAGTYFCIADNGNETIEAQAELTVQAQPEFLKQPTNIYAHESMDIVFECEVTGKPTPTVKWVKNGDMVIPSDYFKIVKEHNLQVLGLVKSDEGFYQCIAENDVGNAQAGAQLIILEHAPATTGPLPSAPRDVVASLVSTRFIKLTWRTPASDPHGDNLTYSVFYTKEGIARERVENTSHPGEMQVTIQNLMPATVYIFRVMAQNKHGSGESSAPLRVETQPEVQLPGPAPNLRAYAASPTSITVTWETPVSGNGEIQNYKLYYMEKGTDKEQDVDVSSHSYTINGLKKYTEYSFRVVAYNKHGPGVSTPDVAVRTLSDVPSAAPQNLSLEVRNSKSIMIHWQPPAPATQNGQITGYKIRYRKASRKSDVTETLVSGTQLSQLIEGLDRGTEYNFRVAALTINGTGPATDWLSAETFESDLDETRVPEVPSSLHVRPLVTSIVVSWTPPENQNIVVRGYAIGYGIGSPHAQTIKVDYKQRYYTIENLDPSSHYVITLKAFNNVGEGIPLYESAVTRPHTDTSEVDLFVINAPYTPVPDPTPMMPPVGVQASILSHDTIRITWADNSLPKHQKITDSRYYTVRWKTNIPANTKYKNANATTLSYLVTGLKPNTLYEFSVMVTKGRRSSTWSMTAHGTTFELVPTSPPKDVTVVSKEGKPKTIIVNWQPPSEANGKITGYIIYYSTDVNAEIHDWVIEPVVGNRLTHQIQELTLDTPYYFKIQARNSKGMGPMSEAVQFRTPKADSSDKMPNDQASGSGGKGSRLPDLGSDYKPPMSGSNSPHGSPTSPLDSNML
Source text: (§1) Antigen was loaded as ligand and dipped into antibody as analyte during association, and assay buffer during dissociation.
(§2) Purified recombinant antigens were purchased from a commercial supplier or prepared and purified in-house and details are shown in Table 2.

[2] = biological target: T2, Human recombinant UNC5B (BLI antigen) (Human, UniProt Q8IZJ1 27-377); test: as above
T2 construct: also called UNC5B ectodomain
Source text: as §1, §2

[3] = biological target: T3, Human recombinant UNC5A (BLI antigen) (Human, UniProt Q6ZN44 26-306); test: as above
T3 construct: Captured by His tag; also called UNC5A ectodomain
Source text: as §1, §2

[4] = biological target: T4, Human recombinant UNC5D (BLI antigen) (Human, UniProt Q6UXZ4 33-379); test: as above
T4 construct: also called UNC5D ectodomain
Source text: as §1, §2

[5] = biological target: T5, UNC5C recombinant human antigen, Fc-tagged (R&D Systems, #1005-UN) (human, UniProt O95185 41-380, limits assumed); test: ELISA, antigen down
T5 construct: Bought protein; also called rhUNC5C; not shown: Fc tag of the bought protein

[6] = biological target: T6, full-length human NEO1 on fixed HEK293 cells (Retrogenix panel) (human, UniProt Q92859 34-1461); test: Retrogenix cell microarray, fixed HEK293 cells
T6 construct: whole, on cells; also called neogenin
T6 sequence (looked up): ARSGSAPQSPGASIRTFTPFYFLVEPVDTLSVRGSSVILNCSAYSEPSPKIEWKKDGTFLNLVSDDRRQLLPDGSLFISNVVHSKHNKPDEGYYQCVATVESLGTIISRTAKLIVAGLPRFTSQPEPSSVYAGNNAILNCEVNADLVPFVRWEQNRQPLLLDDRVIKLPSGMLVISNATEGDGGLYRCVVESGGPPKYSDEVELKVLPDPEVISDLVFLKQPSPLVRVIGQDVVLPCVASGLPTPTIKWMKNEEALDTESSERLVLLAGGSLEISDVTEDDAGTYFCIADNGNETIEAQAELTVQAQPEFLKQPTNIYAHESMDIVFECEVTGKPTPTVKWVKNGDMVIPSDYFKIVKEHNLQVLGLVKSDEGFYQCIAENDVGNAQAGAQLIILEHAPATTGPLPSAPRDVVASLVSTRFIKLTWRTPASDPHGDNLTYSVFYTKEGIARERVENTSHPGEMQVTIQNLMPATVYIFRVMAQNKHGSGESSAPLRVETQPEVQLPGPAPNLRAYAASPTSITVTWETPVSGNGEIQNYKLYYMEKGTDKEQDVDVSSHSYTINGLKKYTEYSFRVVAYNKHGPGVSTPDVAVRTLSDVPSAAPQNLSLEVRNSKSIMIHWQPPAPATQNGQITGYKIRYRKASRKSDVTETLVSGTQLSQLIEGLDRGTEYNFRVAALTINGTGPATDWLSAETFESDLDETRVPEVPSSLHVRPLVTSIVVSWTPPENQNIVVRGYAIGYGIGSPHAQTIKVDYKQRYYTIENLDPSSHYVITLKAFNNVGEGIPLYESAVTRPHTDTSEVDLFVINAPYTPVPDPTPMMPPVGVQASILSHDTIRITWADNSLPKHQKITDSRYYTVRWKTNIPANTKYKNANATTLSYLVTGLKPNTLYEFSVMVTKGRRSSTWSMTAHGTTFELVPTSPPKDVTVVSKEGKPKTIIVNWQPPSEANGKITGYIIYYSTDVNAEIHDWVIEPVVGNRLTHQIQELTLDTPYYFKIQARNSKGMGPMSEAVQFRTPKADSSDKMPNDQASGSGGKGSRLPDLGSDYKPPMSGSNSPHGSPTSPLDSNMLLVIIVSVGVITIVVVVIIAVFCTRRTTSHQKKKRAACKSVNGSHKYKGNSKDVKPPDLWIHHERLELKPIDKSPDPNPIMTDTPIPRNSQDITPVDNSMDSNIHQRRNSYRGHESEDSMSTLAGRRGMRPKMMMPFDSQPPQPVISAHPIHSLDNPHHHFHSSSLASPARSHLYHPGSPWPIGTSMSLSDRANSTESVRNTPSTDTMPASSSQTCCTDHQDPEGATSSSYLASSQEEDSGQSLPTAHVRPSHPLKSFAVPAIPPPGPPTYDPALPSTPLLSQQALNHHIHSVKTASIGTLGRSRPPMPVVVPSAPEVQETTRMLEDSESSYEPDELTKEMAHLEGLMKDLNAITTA

T5 sequence (O95185 41-380 limits assumed): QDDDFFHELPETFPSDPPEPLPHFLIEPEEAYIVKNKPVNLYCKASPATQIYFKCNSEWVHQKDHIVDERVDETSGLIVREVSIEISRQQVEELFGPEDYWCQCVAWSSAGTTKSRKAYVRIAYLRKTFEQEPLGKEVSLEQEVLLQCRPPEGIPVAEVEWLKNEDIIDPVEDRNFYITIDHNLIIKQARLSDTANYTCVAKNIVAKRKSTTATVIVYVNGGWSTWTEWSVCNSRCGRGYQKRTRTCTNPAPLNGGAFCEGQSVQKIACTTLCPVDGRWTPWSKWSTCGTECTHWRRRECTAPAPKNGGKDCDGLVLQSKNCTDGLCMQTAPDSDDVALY
T3 sequence (Q6ZN44 other isoform, or with tags, fused parts or gaps): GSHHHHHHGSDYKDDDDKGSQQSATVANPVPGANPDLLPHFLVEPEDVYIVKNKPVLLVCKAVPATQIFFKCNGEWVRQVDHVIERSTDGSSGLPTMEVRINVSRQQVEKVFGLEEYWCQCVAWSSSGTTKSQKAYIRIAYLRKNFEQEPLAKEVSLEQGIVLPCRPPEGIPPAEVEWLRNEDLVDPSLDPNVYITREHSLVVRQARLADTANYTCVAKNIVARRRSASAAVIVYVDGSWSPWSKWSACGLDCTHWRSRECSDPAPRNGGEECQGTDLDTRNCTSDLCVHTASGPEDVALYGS
T4 sequence (Q6UXZ4 other isoform, or with tags, fused parts or gaps): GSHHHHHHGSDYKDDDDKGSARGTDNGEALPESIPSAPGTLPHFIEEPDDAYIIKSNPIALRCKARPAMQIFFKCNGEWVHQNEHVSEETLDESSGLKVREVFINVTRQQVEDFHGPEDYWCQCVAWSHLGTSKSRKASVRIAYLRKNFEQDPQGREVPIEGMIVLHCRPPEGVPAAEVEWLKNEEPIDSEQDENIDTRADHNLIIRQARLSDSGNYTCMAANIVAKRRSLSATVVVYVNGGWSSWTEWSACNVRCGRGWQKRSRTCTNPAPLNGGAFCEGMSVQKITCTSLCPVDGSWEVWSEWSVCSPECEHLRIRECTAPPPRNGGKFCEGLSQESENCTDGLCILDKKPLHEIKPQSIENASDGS

binding result [1]: no binding (tested: up to 100 nM)
binding result [2]: no binding (tested: up to 100 nM)
binding result [3]: no binding (tested: up to 100 nM)
binding result [4]: no binding (tested: up to 100 nM)
EC50 [5]: 8 nM
binding result [6]: no binding
B1: ATL_0006178 (antibody, IgG1, V domains shown)
VH: QVQLQESGPGLVKPSETLSLTCTVSGGSISSYFWSWIRQPPGKGLEWIGYIHYSGTTNQNPSLKSRVTISVDKSKNQFSLKLSSVTAADTAVYYCARGRGMATLPFDYWGQGTLVTVSS
VL: not shown
notes: Combination variant of ATL_5262 (T82K, Q67 kept, N58Y); also called ATL_6178; ATL6178
